Data from patent publication US20220411536A1 (NUMAB THERAPEUTICS, published 2022).

Tests used:
[1] = molecular target: T1, recombinant human Her2 ECD (SinoBiological, cat. 10004-HCCH) (human, UniProt P04626 23-652); assay: SPR, human Her-2
T1 construct: extracellular domain; bought protein

[2] = molecular target: T2, CD3e on Jurkat PD-1 NFAT reporter T cells or on T cells of human PBMCs (human, UniProt P07766 23-207); assay: cell-based or functional assay
[3] = molecular target: T3, human HER2 expressed on cells (SK-OV3, MCF-7, HCC1954, HCC827) (human, UniProt P04626 23-1255); assay: flow cytometry, MCF-7 cells
T3 construct: whole, on cells

[4] = molecular target: T3, human HER2 expressed on cells (SK-OV3, …); assay: flow cytometry, SK-OV3 cells
[5] = molecular target: T3, human HER2 expressed on cells (SK-OV3, …); assay: flow cytometry, SK-OV3 cells, no competitor
[6] = molecular target: T3, human HER2 expressed on cells (SK-OV3, …); assay: flow cytometry, IFNy-stimulated HCC827 cells
[7] = molecular target: T3, human HER2 expressed on cells (SK-OV3, …); assay: flow cytometry, IFNy-stimulated HCC1954 cells
[8] = molecular target: unidentified antigen on CHO PD-L1 cells bound by pertuzumab (the filing speculates hamster HER2); assay: flow cytometry, CHO PD-L1 cells (residual binding)
[9] = molecular target: T3, human HER2 expressed on cells (SK-OV3, …); assay: flow cytometry, SK-OV3 cells, competitor 50 nM trastuzumab
[10] = molecular target: T2, CD3e on Jurkat PD-1 NFAT reporter T …; assay: cell-based or functional assay; remark: listed apart in the source
[11] = molecular target: T2, CD3e on Jurkat PD-1 NFAT reporter T …; assay: cell-based or functional assay; remark: listed apart in the source
[12] = molecular target: T4, recombinant human IL-23R (custom-made by Trenzyme) (human, UniProt Q5VWK5 24-355); assay: SPR, immobilised IL-23R
T4 sequence (looked up): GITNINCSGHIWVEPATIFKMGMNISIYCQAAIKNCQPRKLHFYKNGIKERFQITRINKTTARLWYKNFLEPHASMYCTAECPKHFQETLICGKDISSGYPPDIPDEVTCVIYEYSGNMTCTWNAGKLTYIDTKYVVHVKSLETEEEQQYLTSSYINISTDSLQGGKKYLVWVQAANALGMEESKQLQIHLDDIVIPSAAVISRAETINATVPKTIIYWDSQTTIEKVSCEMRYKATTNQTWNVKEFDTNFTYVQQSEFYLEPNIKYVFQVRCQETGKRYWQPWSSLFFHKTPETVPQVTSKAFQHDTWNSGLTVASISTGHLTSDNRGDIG

[13] = molecular target: T1, recombinant human Her2 ECD …; assay: SPR, immobilised Her2 ECD
[14] = molecular target: T5, Fc-tagged human PD-L1 extracellular domain (SinoBiological, cat. 10084-H02H) (human, UniProt Q9NZQ7 19-238); assay: SPR, captured Fc-PD-L1 ECD
T5 construct: extracellular domain; also called hPD-L1; not shown: Fc tag of the bought protein

[15] = molecular target: T6, human serum albumin (human, UniProt P02768 25-609); assay: SPR, immobilised HSA, pH 5.5
T6 construct: also called HSA; human SA

[16] = molecular target: T7, mouse serum albumin (mouse, UniProt P07724 25-608); assay: SPR, immobilised MSA, pH 5.5
T7 construct: also called MSA; mouse SA

[17] = molecular target: T8, recombinant human CD3E ECD (SinoBiological, cat. 10977-H08H) (human, UniProt P07766 23-126); assay: SPR, immobilised CD3e ECD, two-state model
T8 construct: extracellular domain; bought protein; also called CD3s

[18] = molecular target: T8, recombinant human CD3E ECD …; assay: SPR, immobilised CD3e ECD, two-state model; overall KD of the two-state fit
[19] = molecular target: T8, recombinant human CD3E ECD …; assay: SPR, immobilised CD3e ECD, two-state model (ka1); ka1, first step of the two-state fit
[20] = molecular target: T8, recombinant human CD3E ECD …; assay: SPR, immobilised CD3e ECD, two-state model (kd1); kd1, first step of the two-state fit
[21] = molecular target: CD137 on transgenic NF-kB Jurkat reporter cells (Homo sapiens (Human), UniProt Q07011 24-255); assay: cell-based or functional assay
[22] = molecular target: T9, human PD-L1 expressed on cells (CHO-PD-L1, HCC1954, HCC827) (human, UniProt Q9NZQ7 19-290); assay: flow cytometry with human SA, inhibition of PD-1 binding to HCC1954 cells
T9 construct: whole, on cells; also called hPD-L1; PD-L1 expressing cells

[23] = molecular target: T9, human PD-L1 expressed on cells …; assay: flow cytometry competition in presence of human SA: binding of biotinylated PD-1 to HCC1954 cells (Her2+++, PD-L1); blocked ligand PD-1 [HCC1954]

T7 sequence (P07724 25-608 limits assumed): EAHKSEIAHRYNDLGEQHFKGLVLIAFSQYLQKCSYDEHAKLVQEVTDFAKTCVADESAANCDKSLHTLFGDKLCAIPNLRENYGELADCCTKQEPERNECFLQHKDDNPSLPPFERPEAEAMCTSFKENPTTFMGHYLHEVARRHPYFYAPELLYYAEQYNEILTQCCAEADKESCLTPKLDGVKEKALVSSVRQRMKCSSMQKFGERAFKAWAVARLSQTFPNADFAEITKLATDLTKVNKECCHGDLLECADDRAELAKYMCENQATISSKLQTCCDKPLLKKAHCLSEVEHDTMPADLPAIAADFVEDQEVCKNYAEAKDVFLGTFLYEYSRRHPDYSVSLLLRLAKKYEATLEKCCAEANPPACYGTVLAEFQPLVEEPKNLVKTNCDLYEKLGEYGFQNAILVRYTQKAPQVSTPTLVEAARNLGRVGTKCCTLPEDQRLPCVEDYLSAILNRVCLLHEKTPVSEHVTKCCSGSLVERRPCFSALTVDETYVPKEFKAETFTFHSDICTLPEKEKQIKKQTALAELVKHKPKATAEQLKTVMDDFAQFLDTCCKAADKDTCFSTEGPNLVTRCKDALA
T8 sequence (P07766 23-126): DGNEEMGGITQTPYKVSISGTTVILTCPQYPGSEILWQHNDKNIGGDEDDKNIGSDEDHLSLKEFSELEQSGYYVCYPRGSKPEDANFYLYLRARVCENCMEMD

B1: PRO1895 (multispecific antibody)
chain 1: DIQMTQSPSSLSASVGDRVTITCKASQDVSIGVAWYQQKPGKAPKLLIYSASYRYTGVPSRFSGSGSGTDFTLTISSLQPEDFATYYCQQYYIYPYTFGCGTKVTVLGGGGGSGGGGSGGGGSGGGGSEVQLVESGGGLVQPGGSLRLSCAASGFTFTDYTMDWVRQAPGKCLEWVADVNPNSGGSIYNQRFKGRFTLSVDRSKNTLYLQMNSLRAEDTAVYYCARNLGPSFYFDYWGQGTLVTVSSGGGGSGGGGSDVVMTQSPSSLSASVGDRVTITCQASQIISSRSAWYQQKPGQPPKLLIYQASKLASGVPSRFSGSGSGTDFTLTISSLQPEDFATYYCQCTYIDSNFGAFGCGTKLTVLGGGSGGSDIQMTQSPSSLSASVGDRVTITCQSSQSVFSNNYLAWFQQKPGQSPKRLIYSASTLASGVPSRFSGSGSGTDFTLTISSLQPEDFATYYCLGSYACSSADCYVFGTGTKVTVLG
chain 2: DIQMTQSPSSLSASVGDRVTITCQASQSINDYLAWYQQKPGKAPKLLIYKASTLASGVPSRFSGSGSGTDFTLTISSLQPEDFATYYCQAAYIITDIDNVFGTGTKVTVLGGGGGSGGGGSGGGGSGGGGSQVQLQESGPGLVKPSETLSLTCKVSGFSFSSGYDMCWIRQPPGKGLEWIGCVVAGSVDITYYASWAKGRVTISVDSSKNQFSLKLSSVTAADTAVYYCARKDAYSDAFNLWGQGTLVTVSSGGGGSGGGGSEVQLVESGGGLVQPGGSLRLSCAASGFSLSSYDMSWVRQAPGKGLAWIGASYASGPTYYASWAKGRFTISRDNSKNTVYLQMNSLRAEDTATYFCARGGWTGTSHSNIWGQGTLVTVSSGGGSGGGSEVQLVESGGGLVQPGGSLRLSCAASGFSFSSSYWICWVRQAPGKCLEWVGCVFTGDGTTYYASWAKGRFTISRDNSKNTVYLQMNSLRAEDTATYFCARPVSVYYYGMDLWGQGTLVTVSS
notes: also called pertuzumab-based MATCH4
[1]
  Kd: 0.414 nM
  koff: 8.11e-05 s⁻¹
  kon: 196000 M⁻¹ s⁻¹
[2]
  T cell activation IC50, PBMC with HCC827 cells: 0.153 nM
  T cell activation IC50, PBMC with HCC1954 cells: 0.027 nM
[3]
  EC50: 5.35 nM
[4]
  EC50: 1.87 nM
[5]
  EC50: 2.02 nM
[6]
  EC50: 1.34 nM
[7]
  EC50: 17.3 nM
[8]
  EC50: 97.3 nM
[9]
  EC50: 4.55 nM

B2: PRO1557 (multispecific antibody)
chain 1: not shown
chain 2: DIQMTQSPSSLSASVGDRVTITCQASENIYSFLAWYQQKPGKAPKLLIYSASKLAAGVPSRFSGSGSGTDFTLTISSLQPEDFATYYCQQTNRYSNPDIYNVFGTGTKVTVLGGGGGSGGGGSGGGGSGGGGSEVQLVESGGGLVQPGGSLRLSCAASGIDFNSNYYMCWVRQAPGKGLEWIGCIYVGSHVNTYYANWAKGRFTISRDNSKNTVYLQMNSLRAEDTAVYYCATSGSSVLYFKFWGQGTLVTVSSGGGGSGGGGSEVQLVESGGGLVQPGGSLRLSCAASGFSLSSYDMSWVRQAPGKGLAWIGASYASGPTYYASWAKGRFTISRDNSKNTVYLQMNSLRAEDTATYFCARGGWTGTSHSNIWGQGTLVTVSSGGGSGGGSEVQLVESGGGLVQPGGSLRLSCAASGFSFSSSYWICWVRQAPGKCLEWVGCVFTGDGTTYYASWAKGRFTISRDNSKNTVYLQMNSLRAEDTATYFCARPVSVYYYGMDLWGQGTLVTVSS
[10]
  IC50, NFAT reporter, HCC1954 cells: 0.391 nM
  IC50, NFAT reporter, HCC1954 cells, + PRO1434: 0.671 nM
  IC50, NFAT reporter, HCC1954 cells, + nivolumab: 0.319 nM
  rel. max. activation vs PRO1497, NFAT reporter, HCC1954 cells: 82%
[11]
  target cell killing IC50, 16 h, HCC1954 cells: 0.00279 nM
  target cell killing IC50, 16 h, MCF-7 cells: 0.0181 nM
[12]
  Kd: 0.931 nM
  koff: 0.000514 s⁻¹
  kon: 552000 M⁻¹ s⁻¹
[13]
  Kd: 0.318 nM
  koff: 6.35e-05 s⁻¹
  kon: 200000 M⁻¹ s⁻¹
[14]
  binding result: no binding
[15]
  Kd: 0.498 nM
  koff: 0.00012 s⁻¹
  kon: 240000 M⁻¹ s⁻¹
[16]
  Kd: 11.2 nM
  koff: 0.00107 s⁻¹
  kon: 95600 M⁻¹ s⁻¹
[17]
  KD1: 18.7 nM
  kd2: 0.00356 s⁻¹
[18]
  Kd: 8.43 nM
[19]
  kon: 283000 M⁻¹ s⁻¹
[20]
  koff: 0.00529 s⁻¹

B3: PRO1993 (multispecific antibody)
chain 1: DIQMTQSPSSLSASVGDRVTITCKASQDVSIGVAWYQQKPGKAPKLLIYSASYRYTGVPSRFSGSGSGTDFTLTISSLQPEDFATYYCQQYYIYPYTFGCGTKVTVLGGGGGSGGGGSGGGGSGGGGSEVQLVESGGGLVQPGGSLRLSCAASGFTFTDYTMDWVRQAPGKCLEWVADVNPNSGGSIYNQRFKGRFTLSVDRSKNTLYLQMNSLRAEDTAVYYCARNLGPSFYFDYWGQGTLVTVSSGGGGSGGGGSDVVMTQSPSSLSASVGDRVTITCQASQIISSRSAWYQQKPGQPPKLLIYQASKLASGVPSRFSGSGSGTDFTLTISSLQPEDFATYYCQCTYIDSNFGAFGTGTKLTVLGGGSGGSDIQMTQSPSSLSASVGDRVTITCQASQSISNRLAWYQQKPGKAPKLLIYSASTLASGVPSRFSGSGSGTDFTLTISSLQPEDFATYYCQSTYYGNDGNAFGCGTKVTVLG
chain 2: DIQMTQSPSSLSASVGDRVTITCQASQSINDYLAWYQQKPGKAPKLLIYKASTLASGVPSRFSGSGSGTDFTLTISSLQPEDFATYYCQAAYIITDIDNVFGTGTKVTVLGGGGGSGGGGSGGGGSGGGGSQVQLQESGPGLVKPSETLSLTCKVSGFSFSSGYDMCWIRQPPGKGLEWIGCVVAGSVDITYYASWAKGRVTISVDSSKNQFSLKLSSVTAADTAVYYCARKDAYSDAFNLWGQGTLVTVSSGGGGSGGGGSEVQLVESGGGLVQPGGSLRLSCAASGFSFSANYYPCWVRQAPGKCLEWIGCIYGGSSDITYDANWTKGRFTISRDNSKNTVYLQMNSLRAEDTAVYYCARSAWYSGWGGDLWGQGTLVTVSSGGGSGGGSEVQLVESGGGLVQPGGSLRLSCAASGFSFSSSYWICWVRQAPGKGLEWVGCVFTGDGTTYYASWAKGRFTISRDNSKNTVYLQMNSLRAEDTATYFCARPVSVYYYGMDLWGQGTLVTVSS
[21]
  EC50, NFkB reporter gene assay, HCC827 cells: 0.287 nM
  EC50, NFkB reporter gene assay, HCC1954 cells: 0.168 nM
[22]
  IC50: 0.167 µg/mL
[23]
  IC50 (read off the curve): ~2 nM
